Test results from article PMC11075132, “A transaminase-mediated aldol reaction and applications in cascades to styryl pyridines” (Catalysis Science & Technology, 2024).

Substrate: NCCc1ccc(O)cc1
Assay: purified protein
Type: biochemical, Chromobacterium violaceum
Details: apparent; transaminase reaction; 0.1 eq. PLP, 1 eq. pyruvate as amine acceptor; substrate 4a taken from context

B1: CvTAm (Chromobacterium violaceum ATCC 12472) (protein)
chain: MQKQRTTSQWRELDAAHHLHPFTDTASLNQAGARVMTRGEGVYLWDSEGNKIIDGMAGLWCVNVGYGRKDFAEAARRQMEELPFYNTFFKTTHPAVVELSSLLAEVTPAGFDRVFYTNSGSESVDTMIRMVRRYWDVQGKPEKKTLIGRWNGYHGSTIGGASLGGMKYMHEQGDLPIPGMAHIEQPWWYKHGKDMTPDEFGVVAARWLEEKILEIGADKVAAFVGEPIQGAGGVIVPPATYWPEIERICRKYDVLLVADEVICGFGRTGEWFGHQHFGFQPDLFTAAKGLSSGYLPIGAVFVGKRVAEGLIAGGDFNHGFTYSGHPVCAAVAHANVAALRDEGIVQRVKDDIGPYMQKRWRETFSRFEHVDDVRGVGMVQAFTLVKNKAKRELFPDFGEIGTLCRDIFFRNNLIMRACGDHIVSAPPLVMTRAEVDEMLAVAERCLEEFEQTLKARGLA
notes: wild type, recombinant in E. coli, purified; homodimer; PLP enzyme; catalytic Lys288
Km: 1690 µM | kcat: 6.04 s⁻¹
